Test results published in the supplement of paper PMC10567573.

B1: FAM9B (parent)
chain: EDLTAKRKRMKMDKTCSKTKNKSK
B2: GMCL1 (parent)
chain: FCYCAGSHKRKRSSGSFCYCHPDS

Variants of: B1
Experiment: protein stability index of a GFP-peptide fusion (GPS, HEK-293T) (PSI 1-6); higher = more stable
Settings: c terminus: a fixed tail appended
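Note: lentivirally expressed fusions sorted by FACS into six bins by GFP to DsRed ratio, PSI derived from sequencing read proportions per bin multiplied by bin number.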

Protein stability index of substitutions, site by site:
K22: L 4.39, C 4.92, Y 5.07, W 4.19, N 4.83, T 5.11, P 5.58, I 3.59, E 4.96, V 4.39, F 4.63, A 5.4, R 5.31, Q 4.74, H 5, M 4.47, D 5.24, G 4.78
S17: Q 5.34, I 5.21, K 4.55, C 5.05, Y 5.08, W 5.02, M 5.39, V 4.88, T 5.32, G 5.02, F 4.24, H 4.8, N 5.85, P 4.93, E 5.73, A 4.7
K20: Q 5.15, G 5.06, F 4.46, A 4.94, R 4.76, P 4.75, S 4.84, L 4.96, I 4.75, C 4.57, D 4.9, W 4.47, H 5.24, T 5.25, E 5.07, Y 4.43, M 4.57, V 4.32, N 4.87
K14: R 5.37, I 3.76, L 4.83, T 5.03, V 5.07, W 4.73, C 4.41, A 4.99, Q 4.99, E 5.07, P 5.37, M 5.45, G 5.19, F 4.48, D 5.14, S 5.03, Y 5.22, H 5.36, N 5.51
T19: A 5.16, I 4.9, K 5.17, H 5.02, C 4.99, D 4.97, Y 4.75, S 5.62, V 4.7, N 5.1, Q 5.08, L 4.94, M 5.15, G 4.94, W 4.58, R 5.26, P 4.89, F 5.29, E 5.74
N21: R 5.25, K 5.33, W 4.4, T 5.42, G 4.78, C 4.95, F 4.57, V 4.11, M 4.81, S 5.46, D 5.17, I 4.7, H 5, A 5.23, E 5.44, P 4.94, Q 5.51, L 4.93, Y 4.77
K24: C 5.2, V 4.62, H 4.71, G 4.19, L 4.01, E 5.11, M 4.96, T 5.15, S 4.43, F 4.83, P 4.93, R 5.06, N 5, Q 4.59, A 5.14, D 4.97, W 3.98, I 4.68
K18: Y 4.59, S 4.78, M 4.67, E 5.6, T 4.89, F 3.92, R 4.81, N 5.18, G 4.83, A 4.86, D 5.07, H 5.3, W 4.35, C 4.96, I 4.9, V 4.75, P 5.87, L 4.75, Q 5.57
S23: H 4.53, D 5.36, K 5.06, Q 5.1, G 5.07, Y 5.07, E 5.52, M 3.93, F 4.6, W 4.47, T 5.31, C 5.32, I 4.78, R 5.24, V 5.27, A 5.7, P 5.54, L 4.76, N 5.12
D13: Y 5.14, V 5.36, N 5.3, I 4.89, R 4.49, L 4.77, W 4.8, S 4.89, K 4.7, P 4.66, M 3.91, H 4.64, Q 5.41, T 5.01
T15: Q 5.42, S 4.24, L 5.07, W 4.78, I 5.12, Y 5, G 4.55, K 4.48, H 4.6, F 4.8, M 5.11, V 4.9, P 5, N 5.33, E 5.2, C 5.36, D 4.91, R 4.88, A 5
C16: S 5.33, Q 5.45, G 4.11, F 4.93, E 5.47, K 4.96, A 4.69, I 4.71, W 5.08, L 5.05, M 5.27, V 5.53, H 4.66, R 5.47, Y 5.54, T 5.63, P 5.57, D 5.67, N 5.46

Variants of: B2
Experiment: as above
Settings: c terminus: a fixed tail appended

Protein stability index of substitutions, site by site:
S7: C 2.1, F 2.54, E 2.2, A 2.15, G 1.02, D 1.55
C2: L 1.79, H 1.81, T 2.22, K 2.06, M 1.51, I 1.94, N 1.27, S 2.25, Y 2.03, P 1.53, D 2.79, F 2.25, W 1.79, Q 3.31, G 2.7, E 2.05, A 2.76, R 3.48
A5: E 2.33, L 1.57, H 2.26, P 2.58, S 2, G 1.5, Y 1.89, Q 1.94, K 2.53, V 2.67, M 1.88, N 2.03, D 2.38, T 1.38, F 2.37, C 1.65, R 1.85, I 3.03, W 2.26
Y3: Q 2.89, S 2.25, M 2.02, A 2.37, W 2.88, H 1.81, F 2.01, E 2.5, R 2.3, T 2.99, V 2.07, G 1.7, N 2.67, C 1.75, D 2.2, I 2.46, P 1.76, L 2.96, K 2.82
F1: Y 1.55, P 4.21, D 4.2, H 3.17, N 3.81, E 4.31, I 3.79, W 1.91, A 4.19, V 3.65, C 4.1, L 2.8, T 3.34, Q 3.82, K 3.78, S 3.78, R 3.85, M 3.46
G6: F 1.92, P 1.34, V 2.68, S 2.39, E 1.86, R 2.05, L 2.44, D 1.91, Q 2, I 1.54, T 1.55, W 2.84, H 1.94, C 2.53, N 2.92, Y 2.59, K 1.5, M 2.48
C4: R 1.36, N 2.26, S 2.55, P 1.53, E 2.01, L 2.81, A 1.29, D 1.74, I 1.56, T 2.06, F 1.65, K 2.07, M 2.52, Q 1.01, G 1.7, V 2.27, W 2.56, H 1.35
